Publication PMC3616717

T1: human F-box-containing DNA helicase FBH1, FLAG-tagged and biotinylated, non-ubiquitylated (human), Q8NFZ0
T1 chain: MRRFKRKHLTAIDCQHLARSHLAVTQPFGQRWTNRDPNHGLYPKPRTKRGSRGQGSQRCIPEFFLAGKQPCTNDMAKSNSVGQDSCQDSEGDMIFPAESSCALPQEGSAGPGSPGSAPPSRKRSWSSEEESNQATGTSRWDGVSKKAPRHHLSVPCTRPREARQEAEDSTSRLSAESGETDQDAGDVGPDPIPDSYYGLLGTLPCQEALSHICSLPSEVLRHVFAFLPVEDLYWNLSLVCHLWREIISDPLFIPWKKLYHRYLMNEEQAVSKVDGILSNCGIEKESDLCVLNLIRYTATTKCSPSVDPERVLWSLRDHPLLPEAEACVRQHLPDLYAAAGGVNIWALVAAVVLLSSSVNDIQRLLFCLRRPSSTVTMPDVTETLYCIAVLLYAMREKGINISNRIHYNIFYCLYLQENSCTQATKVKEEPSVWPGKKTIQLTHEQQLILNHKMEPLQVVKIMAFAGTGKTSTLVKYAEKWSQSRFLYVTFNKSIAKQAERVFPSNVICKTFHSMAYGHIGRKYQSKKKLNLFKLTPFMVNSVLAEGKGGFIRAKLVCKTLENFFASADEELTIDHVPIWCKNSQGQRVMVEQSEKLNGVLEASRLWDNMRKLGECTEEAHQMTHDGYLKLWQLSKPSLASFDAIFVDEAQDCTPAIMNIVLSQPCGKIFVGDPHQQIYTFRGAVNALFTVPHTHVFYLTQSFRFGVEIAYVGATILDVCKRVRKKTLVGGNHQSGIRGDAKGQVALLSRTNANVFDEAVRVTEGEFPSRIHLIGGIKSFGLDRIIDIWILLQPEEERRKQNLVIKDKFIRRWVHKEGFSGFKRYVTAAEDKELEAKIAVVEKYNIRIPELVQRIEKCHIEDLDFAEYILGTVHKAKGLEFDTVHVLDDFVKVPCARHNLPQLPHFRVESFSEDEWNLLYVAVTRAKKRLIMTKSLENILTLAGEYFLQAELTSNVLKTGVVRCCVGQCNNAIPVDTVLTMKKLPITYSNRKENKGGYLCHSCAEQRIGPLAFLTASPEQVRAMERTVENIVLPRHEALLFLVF

B1: human RAD51 protein, Q06609 1-339 (natural protein)
chain: MAMQMQLEANADTSVEEESFGPQPISRLEQCGINANDVKKLEEAGFHTVEAVAYAPKKELINIKGISEAKADKILAEAAKLVPMGFTTATEFHQRRSEIIQITTGSKELDKLLQGGIETGSITEMFGEFRTGKTQICHTLAVTCQLPIDRGGGEGKAMYIDTEGTFRPERLLAVAERYGLSGSDVLDNVAYARAFNTDHQTQLLYQASAMMVESRYALLIVDSATALYRTDYSGRGELSARQMHLARFLRMLLRLADEFGVAVVITNQVVAQVDGAAMFAADPKKPIGGNIIAHASTTRLYLRKGRGETRICKIYDSPCLPEAEAMFAINADGVGDAKD
modifications: here or on the partner: biotin on the underlined lysine of the BAP sequence (…)
B2: Cy3/Cy5-labeled poly(dT)60 (oligo g) (ssDNA)
DNA: TTTTTTTTTTTTTTTTTTTTTTTTTTTTTTTTTTTTTTTTTTTTTTTTTTTTTTTTTTTT

What was measured:
[1] = target: T1, human F-box-containing DNA helicase …; experiment: single-molecule TIRFM; conditions: remark: other sources report otherwise
RAD51 = RAD51 (UniProt Q06609 1-339); experiment: single-molecule FRET

| Binder | kon [1] | binding result (RAD51) |
| --- | --- | --- |
| B1 | 2.7e+07 M⁻¹ s⁻¹ |  |
| B2 |  | binds |
